# ± gives the standard deviation of the averaged measurements.
# Test system: ATP
# Assay: switch fluorescence ratio, 500 uM ATP over buffer (Cy3 cluster intensity, sum of 5 cycles each) (fold (ratio)); higher = stronger signal-on switching upon ATP binding; sequences stand for … in TCGTCGGCAGCGTCAGATGTGTATAAGAGACAGTTTTTTTTTTTTTTTTTTTTTTTTT…TC
# Settings: aptamer strand: ATP DNA aptamer (quencher-CACCTGGGGGAGTATTGCGGAGGAAGG + anchor), 100 nM annealed; ATP concentration: 500 uM
# Summary of the method: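 After annealing to 100 nM quencher-labelled ATP aptamer, Cy3-labelled switching-strand clusters on a modified Illumina MiSeq flow-cell were imaged in selection buffer. A second image followed after 15 min with 500 uM ATP at 22 °C, and five such buffer/ATP cycles were done, each separated by NaOH stripping and re-annealing. The fluorescence ratio, averaged per switch-domain sequence, is summed target-cycle over summed buffer-cycle Cy3 intensity per cluster, with clusters outside 100-1000 RFU excluded.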
# 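Note: ATP exposure 15 min at 22 °C before imaging.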
row,Sequence,switch fluorescence ratio
1,TTGACGGGGA,1.12 ± 0.17
2,TTGACGTCGG,0.985 ± 0.018
3,TTGACGTGTT,1.03 ± 0.047
4,TTGACTGGAA,1.02 ± 0.011
5,TTGACTGGAG,1 ± 0.011
6,TTGACTTTAA,1 ± 0.083
7,TTGAGAAATT,1 ± 0.014
8,TTGAGACTAG,1 ± 0.015
9,TTGAGACTCG,0.995 ± 0.019
10,TTGAGACTGT,0.971 ± 0.052
11,TTGAGAGCAA,1.72 ± 0.18
12,TTGAGAGCAG,1.24 ± 0.11
13,TTGAGATAAG,0.9819 ± 0.0014
14,TTGAGATTGA,1.01 ± 0.02
15,TTGAGATTTG,1.01 ± 0.013
16,TTGAGATTTT,0.996 ± 0.023
17,TTGAGCATAT,2.12 ± 1.2
18,TTGAGCGGGT,1.11 ± 0.091
19,TTGAGCTTCA,1.115 ± 0.0063
20,TTGAGGAAGG,0.9835 ± 0.0018
21,TTGAGGAGGG,0.962 ± 0.11
22,TTGAGGCGGA,1.04 ± 0.033
23,TTGAGGGACT,1.01 ± 0.018
24,TTGAGGGATC,1.01 ± 0.06
25,TTGAGGGCAG,1 ± 0.034

row,Sequence,switch fluorescence ratio
1,TTGAGGGTGA,0.988 ± 0.016
2,TTGAGGGTTC,0.96 ± 0.022
3,TTGAGGGTTT,0.994 ± 0.029
4,TTGAGGTCGG,1.005 ± 0.0066
5,TTGAGGTGCG,1.01 ± 0.026
6,TTGAGTCGTC,0.962 ± 0.011
7,TTGAGTGGAG,1.02 ± 0.029
8,TTGAGTGGTT,1.01 ± 0.092
9,TTGAGTTTTG,0.985 ± 0.031
10,TTGATACCAG,0.982 ± 0.013
11,TTGATAGGCC,0.9998 ± 0.0049
12,TTGATAGGGT,1.01 ± 0.026
13,TTGATAGTTG,1.01 ± 0.049
14,TTGATATTTG,1.01 ± 0.039
15,TTGATCAGAG,1.01 ± 0.024
16,TTGATCAGTA,1.02 ± 0.02
17,TTGATCGTGC,1.12 ± 0.18
18,TTGATCTGCT,0.987 ± 0.023
19,TTGATGATCC,0.9781 ± 0.0034
20,TTGATGCAGC,0.958 ± 0.054
21,TTGATGGGGA,0.982 ± 0.014
22,TTGATGGGTT,1.02 ± 0.011
23,TTGATGTCAA,0.999 ± 0.056
24,TTGATGTCCC,1 ± 0.027
25,TTGATTGGCG,1.07 ± 0.058

row,Sequence,switch fluorescence ratio
1,TTGATTGGGG,0.989 ± 0.029
2,TTGATTTAGG,0.995 ± 0.028
3,TTGATTTTAA,1 ± 0.014
4,TTGATTTTTG,1.01 ± 0.03
5,TTGCAATTTT,1.36 ± 0.46
6,TTGCACAATT,1.01 ± 0.057
7,TTGCACTACT,1.5 ± 0.025
8,TTGCACTGAC,1.53 ± 0.21
9,TTGCAGCTCA,1.78 ± 1.1
10,TTGCAGTAGC,1.05 ± 0.033
11,TTGCATAGTG,0.9536 ± 0.0026
12,TTGCATGTTG,0.9886 ± 0.0033
13,TTGCATGTTT,1.15 ± 0.3
14,TTGCATTAAG,0.9963 ± 0.0082
15,TTGCATTAGG,1.28 ± 0.31
16,TTGCATTATA,1.07 ± 0.054
17,TTGCATTGGA,0.9885 ± 0.0079
18,TTGCATTTTC,1.09 ± 0.11
19,TTGCATTTTG,0.985 ± 0.025
20,TTGCCAATCC,1.04 ± 0.04
21,TTGCCAGATT,0.994 ± 0.037
22,TTGCCCCGTA,1.02 ± 0.023
23,TTGCCCCTTA,1.03 ± 0.045
24,TTGCCGGGCA,0.987 ± 0.032
25,TTGCCTCGGG,1.04 ± 0.037

row,Sequence,switch fluorescence ratio
1,TTGCCTGGGG,1.02 ± 0.013
2,TTGCGAGAAC,1.17 ± 0.18
3,TTGCGATGGT,1.02 ± 0.012
4,TTGCGGAGGG,1.01 ± 0.069
5,TTGCGGGGCC,1.04 ± 0.051
6,TTGCGTATGG,1.01 ± 0.021
7,TTGCTAAAAG,1.02 ± 0.028
8,TTGCTAGCCT,1.01 ± 0.021
9,TTGCTAGTAT,1.0001 ± 0.00075
10,TTGCTATGTT,1.01 ± 0.037
11,TTGCTCACTT,1.04 ± 0.029
12,TTGCTCTTGG,0.956 ± 0.0095
13,TTGCTGAGCT,0.9984 ± 0.0076
14,TTGCTGATTT,0.992 ± 0.059
15,TTGCTGGGCC,1.02 ± 0.088
16,TTGCTTAGTT,1.002 ± 0.0071
17,TTGCTTATCG,1.021 ± 0.0047
18,TTGCTTATGG,1.01 ± 0.015
19,TTGCTTCGGC,0.976 ± 0.04
20,TTGCTTGGTG,1.03 ± 0.017
21,TTGCTTGTTG,1.02 ± 0.034
22,TTGCTTTTCG,0.974 ± 0.015
23,TTGCTTTTTG,0.984 ± 0.064
24,TTGGAAACCA,1.02 ± 0.015
25,TTGGAAACGT,1.06 ± 0.067

row,Sequence,switch fluorescence ratio
1,TTGGAAAGCA,1.03 ± 0.027
2,TTGGAAATTT,1.05 ± 0.17
3,TTGGAAGATT,0.9881 ± 0.003
4,TTGGAATGGG,1 ± 0.026
5,TTGGACAGTT,0.99 ± 0.04
6,TTGGACGGGG,1.07 ± 0.035
7,TTGGACGTGT,0.946 ± 0.027
8,TTGGACTCGG,0.997 ± 0.034
9,TTGGAGAGGT,1.02 ± 0.019
10,TTGGAGGCCC,0.9801 ± 0.0029
11,TTGGAGGGG,0.988 ± 0.025
12,TTGGAGGTAG,1 ± 0.037
13,TTGGAGGTTT,1.17 ± 0.24
14,TTGGATACGG,0.995 ± 0.031
15,TTGGATCTTA,0.972 ± 0.02
16,TTGGATTAGT,0.982 ± 0.011
17,TTGGATTCCC,0.977 ± 0.064
18,TTGGATTCGG,0.972 ± 0.017
19,TTGGATTTTG,0.978 ± 0.043
20,TTGGCAGTG,0.993 ± 0.019
21,TTGGCATAAG,1.16 ± 0.28
22,TTGGCATGTT,1.005 ± 0.0093
23,TTGGCCCGGC,1.52 ± 0.72
24,TTGGCCGTGT,1.02 ± 0.028
25,TTGGCCTTCC,2.19 ± 0.74

row,Sequence,switch fluorescence ratio
1,TTGGCGACAT,1.02 ± 0.021
2,TTGGCGAGTT,1.007 ± 0.002
3,TTGGCGGACG,0.984 ± 0.026
4,TTGGCGGAGT,1.01 ± 0.032
5,TTGGCGGCTA,0.982 ± 0.024
6,TTGGCGTATC,0.946 ± 0.041
7,TTGGCGTTCG,1.01 ± 0.025
8,TTGGCTGCGG,0.95 ± 0.021
9,TTGGCTGGTG,1.03 ± 0.04
10,TTGGCTTAAA,1.007 ± 0.0097
11,TTGGCTTTGT,0.985 ± 0.022
12,TTGGCTTTTA,0.99017 ± 0.00047
13,TTGGGAAAAA,1.14 ± 0.23
14,TTGGGAAAGA,1.21 ± 0.34
15,TTGGGAACGG,1.03 ± 0.034
16,TTGGGAAGGA,1.02 ± 0.042
17,TTGGGACAAT,1.04 ± 0.044
18,TTGGGACTTT,1.03 ± 0.022
19,TTGGGAGAAG,0.993 ± 0.051
20,TTGGGATGGG,0.998 ± 0.015
21,TTGGGCAAAA,0.985 ± 0.065
22,TTGGGCAGGA,1.06 ± 0.047
23,TTGGGCAGTG,1.02 ± 0.045
24,TTGGGCCAGG,1.14 ± 0.12
25,TTGGGCCCTG,1.06 ± 0.014

row,Sequence,switch fluorescence ratio
1,TTGGGCGAGG,1.025 ± 0.0075
2,TTGGGCTCTG,0.988 ± 0.018
3,TTGGGCTTAT,1.001 ± 0.0066
4,TTGGGGAAAT,1.31 ± 0.68
5,TTGGGGAATG,0.999 ± 0.049
6,TTGGGGAGTT,1.01 ± 0.044
7,TTGGGGATCG,0.983 ± 0.056
8,TTGGGGCCAA,1.01 ± 0.051
9,TTGGGGCCCT,1.01 ± 0.029
10,TTGGGGCCGA,0.956 ± 0.017
11,TTGGGGCGCG,0.989 ± 0.051
12,TTGGGGCTGA,0.993 ± 0.037
13,TTGGGGGAGC,0.976 ± 0.018
14,TTGGGGGCCA,0.9898 ± 0.0041
15,TTGGGGGCGG,1.01 ± 0.015
16,TTGGGGGCTC,0.998 ± 0.024
17,TTGGGGGGAC,1.03 ± 0.029
18,TTGGGGGTT,1.03 ± 0.017
19,TTGGGGTAG,1.02 ± 0.033
20,TTGGGGTAGG,1.01 ± 0.032
21,TTGGGGTCCT,0.984 ± 0.023
22,TTGGGGTTAG,0.988 ± 0.017
23,TTGGGGTTAT,0.975 ± 0.032
24,TTGGGGTTGC,1.01 ± 0.034
25,TTGGGTAAGA,1.02 ± 0.028

row,Sequence,switch fluorescence ratio
1,TTGGGTATTA,0.9656 ± 0.0024
2,TTGGGTATTT,0.986 ± 0.021
3,TTGGGTCCGA,1.01 ± 0.049
4,TTGGGTGAAG,1.01 ± 0.025
5,TTGGGTGCGG,1 ± 0.066
6,TTGGGTGGAG,0.991 ± 0.023
7,TTGGGTGGGT,1 ± 0.038
8,TTGGGTGGTA,0.988 ± 0.028
9,TTGGGTGTAG,1.04 ± 0.025
10,TTGGGTTTCT,0.97996 ± 0.00043
11,TTGGGTTTG,0.964 ± 0.011
12,TTGGGTTTTT,1.04 ± 0.1
13,TTGGTAATAG,1.03 ± 0.015
14,TTGGTAATGT,1.03 ± 0.016
15,TTGGTACTTA,0.995 ± 0.013
16,TTGGTACTTT,0.9841 ± 0.0051
17,TTGGTAGCTA,0.9889 ± 0.0098
18,TTGGTAGGGC,0.97013 ± 0.0006
19,TTGGTAGGGG,1.03 ± 0.077
20,TTGGTAGTCA,0.992 ± 0.037
21,TTGGTATAGT,0.9999 ± 0.0047
22,TTGGTATGGG,1.03 ± 0.044
23,TTGGTCAAAA,1.022 ± 0.0089
24,TTGGTCCGGT,0.988 ± 0.018
25,TTGGTCCGTC,1.01 ± 0.047

# — the supplement of paper PMC10126150
